The source of these data is US20110052582A1 (Hoffmann-La Roche, published 2011).

Residue numbers refer to the chain shown, from its start.

The chains are these.
T1: Soluble CDCP1 extracellular domain (CDCP1-ECD) (SEQ ID NO:30) fused to Streptavidin Binding Protein (SBP) (human, UniProt Q9H5V8 30-663)
T1 construct: also called SBP-CDCP1-ECD
T1 sequence: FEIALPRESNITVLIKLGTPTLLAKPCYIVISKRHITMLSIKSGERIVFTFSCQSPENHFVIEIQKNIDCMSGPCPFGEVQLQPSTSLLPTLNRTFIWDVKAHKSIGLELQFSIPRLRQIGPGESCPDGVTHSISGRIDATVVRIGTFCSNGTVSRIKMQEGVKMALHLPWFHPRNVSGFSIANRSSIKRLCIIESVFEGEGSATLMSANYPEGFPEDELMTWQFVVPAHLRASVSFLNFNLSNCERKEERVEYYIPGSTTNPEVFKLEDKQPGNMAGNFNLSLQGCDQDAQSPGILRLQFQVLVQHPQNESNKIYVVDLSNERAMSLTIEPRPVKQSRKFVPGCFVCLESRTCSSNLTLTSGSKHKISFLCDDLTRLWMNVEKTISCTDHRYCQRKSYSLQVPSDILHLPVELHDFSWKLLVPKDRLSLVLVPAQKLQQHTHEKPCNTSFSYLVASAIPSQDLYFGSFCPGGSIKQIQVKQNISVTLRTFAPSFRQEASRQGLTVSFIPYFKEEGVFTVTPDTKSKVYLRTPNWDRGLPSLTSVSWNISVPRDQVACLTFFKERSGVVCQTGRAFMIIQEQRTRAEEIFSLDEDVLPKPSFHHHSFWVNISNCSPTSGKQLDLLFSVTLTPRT

B1: hHC4-04 / hLC4-M (antibody, V domains shown)
VH: EVQLLESGGGLVQPGGSLRLSCAASGFTFNSYGMSWVRQAPGKGLEWVSTISSGGSYTYYPDSVKGRFTISRDNSKNTLYLQMNSLRAEDTAVYYCARHPDYDGVWFAYWGQGTLVTVSS
VL: EIVLTQSPATLSLSPGERATMSCGASSSVFYLHWYQQKPGLAPRLWIYDTSKLASGIPDRFSGSGSGTDFTLTISRLEPEDFAVYYCQQWNSNPPTFGGGTKVEIK
B2: hHC4-H / hLC4-J (antibody, V domains shown)
VH: B1 VH with L5V, S49A, T58K, P61V, S75A, T78S
VL: B1 VL with L4M, G24R, L41Q, D59A, R76S, E78Q
notes: also called Humanized CUB4 Antibody No. 36
B3: hHC4-a / hLC4-L2 (antibody, V domains shown)
VH: B1 VH with L5V, Q13K, S75A, T78S
VL: B1 VL with G24S, A25V, L41Q, D59A, R76S
B4: hHC4-K / hLC4-a (antibody, V domains shown)
VH: B1 VH with L5V, Q13K, T50S, T58I, P61A, S75A, T78S
VL: B1 VL with M21L, G24S, A25V, L32V, L41Q, W46L, D59A, R76S
B5: hHC4-07 / hLC4-I (antibody, V domains shown)
VH: B1 VH with G33A, R98K
VL: B1 VL with L4M, M21L, G24R, H33S, L41Q, D59A, R76S, E78Q
B6: hHC4-K2 / hLC4-I (antibody, V domains shown)
VH: B1 VH with L5V, Q13K, T50S, P61A, S75A, T78S
VL: B1 VL with L4M, M21L, G24R, H33S, L41Q, D59A, R76S, E78Q
B7: hHC4-I / hLC4-L (antibody, V domains shown)
VH: B1 VH with G33A, T50A, P61A, R98K
VL: B1 VL with G24R, L41Q, D59A, R76S
B8: hHC4-K2 / hLC4-b (antibody, V domains shown)
VH: B1 VH with L5V, Q13K, T50S, P61A, S75A, T78S
VL: B1 VL with M21L, G24S, A25V, L32V, L41Q, W46L, D59A, F70Y, R76S
B9: hHC4-a / hLC4-L (antibody, V domains shown)
VH: B1 VH with L5V, Q13K, S75A, T78S
VL: B1 VL with G24R, L41Q, D59A, R76S
B10: hHC4-04 / hLC4-b (antibody, V domains shown)
VH: B1 VH
VL: B1 VL with M21L, G24S, A25V, L32V, L41Q, W46L, D59A, F70Y, R76S
B11: hHC4-K / hLC4-I (antibody, V domains shown)
VH: B1 VH with L5V, Q13K, T50S, T58I, P61A, S75A, T78S
VL: B1 VL with L4M, M21L, G24R, H33S, L41Q, D59A, R76S, E78Q
B12: hHC4-K2 / hLC4-L (antibody, V domains shown)
VH: B1 VH with L5V, Q13K, T50S, P61A, S75A, T78S
VL: B1 VL with G24R, L41Q, D59A, R76S
B13: hHC4-a / hLC4-M (antibody, V domains shown)
VH: B1 VH with L5V, Q13K, S75A, T78S
VL: B1 VL
B14: hHC4-a / hLC4-I (antibody, V domains shown)
VH: B1 VH with L5V, Q13K, S75A, T78S
VL: B1 VL with L4M, M21L, G24R, H33S, L41Q, D59A, R76S, E78Q
B15: hHC4-K / hLC4-J (antibody, V domains shown)
VH: B1 VH with L5V, Q13K, T50S, T58I, P61A, S75A, T78S
VL: B1 VL with L4M, G24R, L41Q, D59A, R76S, E78Q
B16: hHC4-07 / hLC4-J (antibody, V domains shown)
VH: B1 VH with G33A, R98K
VL: B1 VL with L4M, G24R, L41Q, D59A, R76S, E78Q
B17: hHC4-K / hLC4-c (antibody, V domains shown)
VH: B1 VH with L5V, Q13K, T50S, T58I, P61A, S75A, T78S
VL: EIVMTQSPATLSVSPGERATLSCSVSSSVFYVHWYQQKPGQAPRLLIYDTSKLASGIPARFSGSGSGTEFTLTISSLQSEDFAVYYCQQWNSNPPTFGGGTKVEIK
B18: hHC4-H / hLC4-I (antibody, V domains shown)
VH: B1 VH with L5V, S49A, T58K, P61V, S75A, T78S
VL: B1 VL with L4M, M21L, G24R, H33S, L41Q, D59A, R76S, E78Q
B19: hHC4-I / hLC4-L2 (antibody, V domains shown)
VH: B1 VH with G33A, T50A, P61A, R98K
VL: B1 VL with G24S, A25V, L41Q, D59A, R76S
B20: hHC4-a / hLC4-b (antibody, V domains shown)
VH: B1 VH with L5V, Q13K, S75A, T78S
VL: B17 VL with M4L, V13L, E69D, F70Y, Q78E, S79P
B21: hHC4-K2 / hLC4-K (antibody, V domains shown)
VH: B1 VH with L5V, Q13K, T50S, P61A, S75A, T78S
VL: B1 VL with M21L, G24R, L41Q, D59A, R76S
B22: hHC4-K / hLC4-L (antibody, V domains shown)
VH: B1 VH with L5V, Q13K, T50S, T58I, P61A, S75A, T78S
VL: B1 VL with G24R, L41Q, D59A, R76S
B23: hHC4-I / hLC4-I (antibody, V domains shown)
VH: B1 VH with G33A, T50A, P61A, R98K
VL: B1 VL with L4M, M21L, G24R, H33S, L41Q, D59A, R76S, E78Q
B24: hHC4-I / hLC4-J (antibody, V domains shown)
VH: B1 VH with G33A, T50A, P61A, R98K
VL: B1 VL with L4M, G24R, L41Q, D59A, R76S, E78Q
B25: hHC4-K / hLC4-b (antibody, V domains shown)
VH: B1 VH with L5V, Q13K, T50S, T58I, P61A, S75A, T78S
VL: B17 VL with M4L, V13L, E69D, F70Y, Q78E, S79P
B26: hHC4-07 / hLC4-b (antibody, V domains shown)
VH: B1 VH with G33A, R98K
VL: B17 VL with M4L, V13L, E69D, F70Y, Q78E, S79P
B27: hHC4-K2 / hLC4-a (antibody, V domains shown)
VH: B1 VH with L5V, Q13K, T50S, P61A, S75A, T78S
VL: B17 VL with M4L, V13L, E69D, Q78E, S79P
B28: hHC4-04 / hLC4-a (antibody, V domains shown)
VH: B1 VH
VL: B17 VL with M4L, V13L, E69D, Q78E, S79P
B29: hHC4-K2 / hLC4-M (antibody, V domains shown)
VH: B1 VH with L5V, Q13K, T50S, P61A, S75A, T78S
VL: B1 VL
B30: hHC4-07 / hLC4-K (antibody, V domains shown)
VH: B1 VH with G33A, R98K
VL: B1 VL with M21L, G24R, L41Q, D59A, R76S
B31: hHC4-a / hLC4-a (antibody, V domains shown)
VH: B1 VH with L5V, Q13K, S75A, T78S
VL: B17 VL with M4L, V13L, E69D, Q78E, S79P
B32: hHC4-H / hLC4-L (antibody, V domains shown)
VH: B1 VH with L5V, S49A, T58K, P61V, S75A, T78S
VL: B1 VL with G24R, L41Q, D59A, R76S
notes: also called Humanized CUB4 Antibody No. 58
B33: hHC4-K / hLC4-M (antibody, V domains shown)
VH: B1 VH with L5V, Q13K, T50S, T58I, P61A, S75A, T78S
VL: B1 VL
B34: hHC4-K2 / hLC4-L2 (antibody, V domains shown)
VH: B1 VH with L5V, Q13K, T50S, P61A, S75A, T78S
VL: B1 VL with G24S, A25V, L41Q, D59A, R76S

The assay has as its target T1, Soluble CDCP1 extracellular domain …. The assay can be described thus: ELISA on captured SBP-CDCP1-ECD, ratio relative to chimeric CUB4 (chHC4). How it is done:
Soluble CDCP1 extracellular domain (CDCP1-ECD) (SEQ ID NO:30) fused to Streptavidin Binding Protein (SBP) was captured on a sreptavidine plate. To define optimal binding of the antibody to SBP-CDCP1-ECD, 384-well polystyrene plates (NUNC, streptavidin-coated) delivered by MicroCoat, Bernried, Germany (ID-No. 1734776-001) have been coated with pure and stepwise diluted HEK293 supernatant (in BSA/IMDM buffer: 100 mg/ml BSA Fraction V, Roche 10735078001, dissolved in Iscove's Modified Dulbeccos Medium). Using a calibration curve of mouse CUB4 antibodies the optimal dilution factor of the HEK293 supernatant in relation to the streptavidin binding capacity of the microtiter plate was identified. For the standard coating, SBP-CDCP1-ECD containing HEK293 supernatant was diluted (between 1:15 and 1:40) and incubated overnight at 2-8° C. (25 μl per well). Intensive washing of the microtiter plate is necessary to remove remaining unbound SBP-CDCP1-ECD.
Humanized CUB4 antibodies and/or reference antibody (chimeric (chHC4) CUB4 antibody comprising human constant region and mouse VH and VL of SEQ ID NO:1 and 2) were tested either undiluted or using a 12-step-dilution. 12.5 μl per well of each sample was incubated for 90 min at room temperature. After intensive washing using PBS-T (0.1% Tween 20 in PBS) 25 μl of either goat anti-human IgG antibodies coupled with HRP (Jackson ImmunoResearch, Code No: 109-036-098, dilution 1:10000) for human antibodies were added and incubated for 1 hour. After intensive washing the binding of the antibodies was detected with ABTS tablets (Roche Diagnostics GmbH, Cat. No.: 1112422). Absorbance at 405 nm/492 nm was measured using a standard photometer.
(In general: In an ELISA, binding on a coated surface is turned into a signal by an enzyme label.)
Take B1: the relative binding ratio stood at 0.82. Regarding B2, the relative binding ratio was 0.52. In the case of B3, the relative binding ratio came out at 0.58. In the case of B4, the binding result is “no binding”.

Take B5: the binding result is “no binding”. Same read-out and setting: with B6 the entry was “no binding”. As to B7, the relative binding ratio worked out at 0.11. Turning to B8, the relative binding ratio amounted to 0.12. Take B9: the relative binding ratio was 0.55. In the case of B10, the relative binding ratio was found to be 0.36.

Turning to B11, the binding result is given as “no binding”. Take B12: the relative binding ratio amounted to 0.21. On to B13, for which the relative binding ratio was 0.8.

In the case of B14, the binding result is “no binding”. In the case of B15, the relative binding ratio came out at 0.01.

Consider B16, for which the relative binding ratio was 0.07.

On to B17, for which the binding result is “no binding”.

As for B18, the binding result is recorded as “no binding”. Consider B19, for which the relative binding ratio is 0.21. Regarding B20, the relative binding ratio came out at 0.36.

On to B21, for which the relative binding ratio was found to be 0.3. Take B22: the relative binding ratio is 0.02. For B23, the binding result is on record as “no binding”. Consider B24, for which the relative binding ratio is 0.11.

For B25, the binding result is recorded as “no binding”. Regarding B26, the relative binding ratio came out at 0.07.

For B27, the relative binding ratio is 0.1. Still for that read-out and setting: to B28 belongs 0.39; to B29, 0.28. On to B30, for which the relative binding ratio was found to be 0.1. Same read-out and setting: with B31 the figure was 0.38; with B32, 0.44; with B33, 0.04. In the case of B34, the relative binding ratio worked out at 0.2.
